Assay results published in paper PMC3216659 (Molecular Biology of the Cell, 2011).

B1: MBP–Duo1 complex (complex, S. cerevisiae)
chain 1: MSEDKAKLGTTRSATEYRLSIGSAPTSRRSSMGESSSLMKFADQEGLTSSVGEYNENTIQQLLLPKIRELSDSIITLDSNFTRLNFIHESLADLNESLGSLLYGIMSNSWCVEFSQAPHDIQDDLIAIKQLKSLEDEKNNLVMELSNMERGIKRKKDEQGENDLAKASQNKQFNQPLFPSSQVRKYRSYDNRDKRKPSKIGNNLQVENEEDYEDDTSSEASFVLNPTNIGMSKSSQGHVTKTTRLNNNTNSKLRRKSILHTIRNSIASGADLPIENDNVVNLGDLHPNNRISLGSGAARVVNGPVTKNRNSMFSGRAERKPTESRHSVAKKTEKKINTRPPFR
chain 2: MSEQSQLDDSTIDKLIPQIFNEMRSNLNNTTNKFPKSTGGGASDNISANSNSIRSFNSITTQSLLKESESLDKITAMIKNVTAALKNNLPVYVNQVHEVCKSTNSILDSWINIHSQAGYIHKLMSDQTYLKLINDRLHNENVNTNDEDGSTLHNVIALKKKEILDLRQKLENRKGEKDAAPAKPPNQGLNPRYGVQSGRRPVPSAGISNNGRVRKTHVPASKRPSGIPRVTNRWTKPTASSSRKMFR
chain 3: MDSASKEETLEKLDQEITVNLQKIDSNLSFCFHKITQDIIPHVATYSEICERIMDSTEWLGTMFQETGLVNLQANAAAPVGNAPVKSLVSNNVGIFPTSAEEASRQSQTDNGPNEADSAVHVNRDVHSMFNNDSIDDFHTANITSTGQILKLPDSSDEDTGSEAVPSREQTDLTGEGHGGADDEQDESTIQRQSRKRKISLLLQQQYGSSSSMVPSPIVPNKMRKQLAHEEHINNDGDNDDENSNNIESSPLKQGHHHPKGQADDNNEGPDEEESTKEVPKPGTIIHFSTNR
chain 4: MGESLDRCIDDINRAVDSMSTLYFKPPGIFHNAILQGASNKASIRKDITRLIKDCNHDEAYLLFKVNPEKQSVSRRDGKEGVFDYVIKRDTDMKRNRRLGRPGEKPIIHVPKEVYLNKDRLDLNNKRRRTATTSGGGLNGFIFDTDLIGSSVISNSSSGTFKALSAVFKDDPQIQRLLYALENGSVLMEEESNNQRRKTIFVEDFPTDLILKVMAEVTDLWPLTEFKQDYDQLYHNYEQLSSKLRFIKKEVLLQDDRLKTMSQYHPSSSHDVAKIIRKEKDEIRRLEMEIANLQE
chain 5: MTDALEQSVLALEGTVSVLKDSVESLKCANEPSTNLASTMLQTKRVFRLVPEYDVERSKLDLIEEVEPLVRTLGDKLRKSMGRMQRELDTLQQTYELNDLRLKKNISMDDDDALNSPDMGQEYEGRDADDVVMMASSTNEELEELKKLKEKKKQLENKLEILKQK
chain 6: MMASTSNDEEKLISTTDKYFIEQRNIVLQEINETMNSILNGLNGLNISLESSIAVGREFQSVSDLWKTLYDGLESLSDEAPIDEQPTLSQSKTK
chain 7: MDSIDEQIAIKRKELQSLQKITSLTDGLKIQLTELNEQIKEMGMNADSVAQLMNNWDSIINNISQASLGLLQYAEGDYEIGPWKDSKKKESEQSNETGLEAQENDKNDEDNDEDEDLVPLPETMVRIRVDGNE
chain 8: MEHNLSPLQQEVLDKYKQLSLDLKALDETIKELNYSQHRQQHSQQETVSPDEILQEMRDIEVKIGLVGTLLKGSVYSLILQRKQEQESLGSNSK
chain 9: MENPHEQVQANILSRIIGNVKRLNESVAILNQELVTINNRNKNLEIMGAICDNYHSSVQFNLEATNNKKPPL
chain 10: MNANKQRQYNQLAHELRELQTNLQETTKQLDIMSKQCNENLVGQLGKVHGSWLIGSYIYYMEQMLGKTQ
B2: MBP–Spc19 complex (complex, S. cerevisiae)
chain 1: MSEDKAKLGTTRSATEYRLSIGSAPTSRRSSMGESSSLMKFADQEGLTSSVGEYNENTIQQLLLPKIRELSDSIITLDSNFTRLNFIHESLADLNESLGSLLYGIMSNSWCVEFSQAPHDIQDDLIAIKQLKSLEDEKNNLVMELSNMERGIKRKKDEQGENDLAKASQNKQFNQPLFPSSQVRKYRSYDNRDKRKPSKIGNNLQVENEEDYEDDTSSEASFVLNPTNIGMSKSSQGHVTKTTRLNNNTNSKLRRKSILHTIRNSIASGADLPIENDNVVNLGDLHPNNRISLGSGAARVVNGPVTKNRNSMFSGRAERKPTESRHSVAKKTEKKINTRPPFR
chain 2: MSEQSQLDDSTIDKLIPQIFNEMRSNLNNTTNKFPKSTGGGASDNISANSNSIRSFNSITTQSLLKESESLDKITAMIKNVTAALKNNLPVYVNQVHEVCKSTNSILDSWINIHSQAGYIHKLMSDQTYLKLINDRLHNENVNTNDEDGSTLHNVIALKKKEILDLRQKLENRKGEKDAAPAKPPNQGLNPRYGVQSGRRPVPSAGISNNGRVRKTHVPASKRPSGIPRVTNRWTKPTASSSRKMFR
chain 3: MDSASKEETLEKLDQEITVNLQKIDSNLSFCFHKITQDIIPHVATYSEICERIMDSTEWLGTMFQETGLVNLQANAAAPVGNAPVKSLVSNNVGIFPTSAEEASRQSQTDNGPNEADSAVHVNRDVHSMFNNDSIDDFHTANITSTGQILKLPDSSDEDTGSEAVPSREQTDLTGEGHGGADDEQDESTIQRQSRKRKISLLLQQQYGSSSSMVPSPIVPNKMRKQLAHEEHINNDGDNDDENSNNIESSPLKQGHHHPKGQADDNNEGPDEEESTKEVPKPGTIIHFSTNR
chain 4: MGESLDRCIDDINRAVDSMSTLYFKPPGIFHNAILQGASNKASIRKDITRLIKDCNHDEAYLLFKVNPEKQSVSRRDGKEGVFDYVIKRDTDMKRNRRLGRPGEKPIIHVPKEVYLNKDRLDLNNKRRRTATTSGGGLNGFIFDTDLIGSSVISNSSSGTFKALSAVFKDDPQIQRLLYALENGSVLMEEESNNQRRKTIFVEDFPTDLILKVMAEVTDLWPLTEFKQDYDQLYHNYEQLSSKLRFIKKEVLLQDDRLKTMSQYHPSSSHDVAKIIRKEKDEIRRLEMEIANLQE
chain 5: MTDALEQSVLALEGTVSVLKDSVESLKCANEPSTNLASTMLQTKRVFRLVPEYDVERSKLDLIEEVEPLVRTLGDKLRKSMGRMQRELDTLQQTYELNDLRLKKNISMDDDDALNSPDMGQEYEGRDADDVVMMASSTNEELEELKKLKEKKKQLENKLEILKQK
chain 6: MMASTSNDEEKLISTTDKYFIEQRNIVLQEINETMNSILNGLNGLNISLESSIAVGREFQSVSDLWKTLYDGLESLSDEAPIDEQPTLSQSKTK
chain 7: MDSIDEQIAIKRKELQSLQKITSLTDGLKIQLTELNEQIKEMGMNADSVAQLMNNWDSIINNISQASLGLLQYAEGDYEIGPWKDSKKKESEQSNETGLEAQENDKNDEDNDEDEDLVPLPETMVRIRVDGNE
chain 8: MEHNLSPLQQEVLDKYKQLSLDLKALDETIKELNYSQHRQQHSQQETVSPDEILQEMRDIEVKIGLVGTLLKGSVYSLILQRKQEQESLGSNSK
chain 9: MENPHEQVQANILSRIIGNVKRLNESVAILNQELVTINNRNKNLEIMGAICDNYHSSVQFNLEATNNKKPPL
chain 10: MNANKQRQYNQLAHELRELQTNLQETTKQLDIMSKQCNENLVGQLGKVHGSWLIGSYIYYMEQMLGKTQ
B3: MBP–Spc34 complex (complex, S. cerevisiae)
chain 1: MSEDKAKLGTTRSATEYRLSIGSAPTSRRSSMGESSSLMKFADQEGLTSSVGEYNENTIQQLLLPKIRELSDSIITLDSNFTRLNFIHESLADLNESLGSLLYGIMSNSWCVEFSQAPHDIQDDLIAIKQLKSLEDEKNNLVMELSNMERGIKRKKDEQGENDLAKASQNKQFNQPLFPSSQVRKYRSYDNRDKRKPSKIGNNLQVENEEDYEDDTSSEASFVLNPTNIGMSKSSQGHVTKTTRLNNNTNSKLRRKSILHTIRNSIASGADLPIENDNVVNLGDLHPNNRISLGSGAARVVNGPVTKNRNSMFSGRAERKPTESRHSVAKKTEKKINTRPPFR
chain 2: MSEQSQLDDSTIDKLIPQIFNEMRSNLNNTTNKFPKSTGGGASDNISANSNSIRSFNSITTQSLLKESESLDKITAMIKNVTAALKNNLPVYVNQVHEVCKSTNSILDSWINIHSQAGYIHKLMSDQTYLKLINDRLHNENVNTNDEDGSTLHNVIALKKKEILDLRQKLENRKGEKDAAPAKPPNQGLNPRYGVQSGRRPVPSAGISNNGRVRKTHVPASKRPSGIPRVTNRWTKPTASSSRKMFR
chain 3: MDSASKEETLEKLDQEITVNLQKIDSNLSFCFHKITQDIIPHVATYSEICERIMDSTEWLGTMFQETGLVNLQANAAAPVGNAPVKSLVSNNVGIFPTSAEEASRQSQTDNGPNEADSAVHVNRDVHSMFNNDSIDDFHTANITSTGQILKLPDSSDEDTGSEAVPSREQTDLTGEGHGGADDEQDESTIQRQSRKRKISLLLQQQYGSSSSMVPSPIVPNKMRKQLAHEEHINNDGDNDDENSNNIESSPLKQGHHHPKGQADDNNEGPDEEESTKEVPKPGTIIHFSTNR
chain 4: MGESLDRCIDDINRAVDSMSTLYFKPPGIFHNAILQGASNKASIRKDITRLIKDCNHDEAYLLFKVNPEKQSVSRRDGKEGVFDYVIKRDTDMKRNRRLGRPGEKPIIHVPKEVYLNKDRLDLNNKRRRTATTSGGGLNGFIFDTDLIGSSVISNSSSGTFKALSAVFKDDPQIQRLLYALENGSVLMEEESNNQRRKTIFVEDFPTDLILKVMAEVTDLWPLTEFKQDYDQLYHNYEQLSSKLRFIKKEVLLQDDRLKTMSQYHPSSSHDVAKIIRKEKDEIRRLEMEIANLQE
chain 5: MTDALEQSVLALEGTVSVLKDSVESLKCANEPSTNLASTMLQTKRVFRLVPEYDVERSKLDLIEEVEPLVRTLGDKLRKSMGRMQRELDTLQQTYELNDLRLKKNISMDDDDALNSPDMGQEYEGRDADDVVMMASSTNEELEELKKLKEKKKQLENKLEILKQK
chain 6: MMASTSNDEEKLISTTDKYFIEQRNIVLQEINETMNSILNGLNGLNISLESSIAVGREFQSVSDLWKTLYDGLESLSDEAPIDEQPTLSQSKTK
chain 7: MDSIDEQIAIKRKELQSLQKITSLTDGLKIQLTELNEQIKEMGMNADSVAQLMNNWDSIINNISQASLGLLQYAEGDYEIGPWKDSKKKESEQSNETGLEAQENDKNDEDNDEDEDLVPLPETMVRIRVDGNE
chain 8: MEHNLSPLQQEVLDKYKQLSLDLKALDETIKELNYSQHRQQHSQQETVSPDEILQEMRDIEVKIGLVGTLLKGSVYSLILQRKQEQESLGSNSK
chain 9: MENPHEQVQANILSRIIGNVKRLNESVAILNQELVTINNRNKNLEIMGAICDNYHSSVQFNLEATNNKKPPL
chain 10: MNANKQRQYNQLAHELRELQTNLQETTKQLDIMSKQCNENLVGQLGKVHGSWLIGSYIYYMEQMLGKTQ

Target: the molecule itself
Test: negative-stain EM with 2D class averages

Stoichiometry N, 2:
B1
B2
B3
